Results on 2 molecules are retold here after publication PMC4323627 (Journal of molecular biology, 2014).

Data set [1] concerns the molecule itself. Kind of data set: crystal structure.
Data set [2] concerns the target T1, human Shq1 CS domain without 6XHis-tag (hCS) (human, UniProt Q6PI26 1-96, uniformly 15N-labelled).
T1 sequence (looked up): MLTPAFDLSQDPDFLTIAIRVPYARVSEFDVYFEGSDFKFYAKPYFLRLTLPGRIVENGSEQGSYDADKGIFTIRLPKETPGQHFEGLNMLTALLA
The data set is described as follows: NMR titration.

B1: human Shq1 CS domain P22S with N-terminal 6XHis-tag (his-hCS(P22S)) (domain or fragment)
chain: MAHHHHHHVDDDDKMLTPAFDLSQDPDFLTIAIRVSYARVSEFDVYFEGSDFKFYAKPYFLRLTLPGRIVENGSEQGSYDADKGIFTIRLPKETPGQHFEGLNMLTALLA
On to B1, for which the binding result in data set [1] was “binds”.

As for LNVRTTHYTPLA [Dys2S peptide (dyskerin residues 62-73)], the Kd (in general, a measure of binding affinity in units of concentration) in data set [2] was over 500 µM.
